Targets include HA-GluA1ΔNTD-GFP×3; GluA1 (UniProt P19490); HA-GluA1 (UniProt P19490); HA-GluA1ΔNTD.
Common to all, as to assay: native gel or EMSA
For orientation: Mobility shift assays separate free from complexed probe on a gel.

The target in experiment [1] is GluA1 Lurcher mutant (A636T) (UniProt P19490).
The target is the same in experiment [2]. This is another data set of the same source.
Experiment [3] has as its target GluA1ΔNTD Lurcher mutant (A636T).
Experiment [4] deals with neuronal AMPA receptor complex detected using the anti-GluA2/3 antibody (mouse (endogenous in cerebellar granule cells)) (UniProt P23819).
Chain of UniProt P23819 (P23819 25-883, one chain of several): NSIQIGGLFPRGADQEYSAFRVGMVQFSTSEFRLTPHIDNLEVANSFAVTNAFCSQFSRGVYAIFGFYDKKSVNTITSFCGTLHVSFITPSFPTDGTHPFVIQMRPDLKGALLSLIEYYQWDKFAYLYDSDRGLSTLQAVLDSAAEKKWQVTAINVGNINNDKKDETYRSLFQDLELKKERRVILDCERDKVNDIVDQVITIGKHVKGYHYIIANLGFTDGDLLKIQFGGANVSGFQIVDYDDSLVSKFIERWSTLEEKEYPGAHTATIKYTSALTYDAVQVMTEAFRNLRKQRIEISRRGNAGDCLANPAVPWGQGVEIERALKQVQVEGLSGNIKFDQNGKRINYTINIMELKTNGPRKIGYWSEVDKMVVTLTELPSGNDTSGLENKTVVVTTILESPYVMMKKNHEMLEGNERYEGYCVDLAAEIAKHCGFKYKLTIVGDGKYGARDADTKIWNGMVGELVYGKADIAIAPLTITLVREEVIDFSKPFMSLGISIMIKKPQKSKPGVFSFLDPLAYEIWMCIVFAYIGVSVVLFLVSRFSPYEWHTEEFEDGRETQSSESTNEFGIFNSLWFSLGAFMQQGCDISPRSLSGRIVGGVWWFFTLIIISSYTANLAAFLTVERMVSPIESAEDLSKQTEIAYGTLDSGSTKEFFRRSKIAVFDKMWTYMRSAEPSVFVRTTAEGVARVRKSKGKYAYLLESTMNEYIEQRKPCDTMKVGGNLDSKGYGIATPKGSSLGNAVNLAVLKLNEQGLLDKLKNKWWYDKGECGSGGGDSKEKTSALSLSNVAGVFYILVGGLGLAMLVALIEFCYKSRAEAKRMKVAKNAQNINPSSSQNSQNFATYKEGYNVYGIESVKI

Seven molecules from publication PMC2821155 can be followed below.

Values joined by “and” are separate entries in the source; they are usually repeats but may differ in a detail not shown here. Equal values may be shown once. Read-outs that look alike come from different tables or passages of the source.

In the experiment with HA-GluA1ΔNTD-GFP×3, HA-GluA1ΔNTD-GFP×3 (domain or fragment) yielded a stoichiometry N (subunits in the oligomer) of 4.
On to “GluA1 Lurcher mutant (A636T) (from UniProt P19490 19-907) (receptor)”, for which the stoichiometry N (subunits in the oligomer) is 4 in experiment [1] and 2 in experiment [2].
Regarding “GluA1 (from UniProt P19490 19-907) (receptor)”, the stoichiometry N (subunits in the oligomer) with GluA1 is 4 and 2.
In the experiment with HA-GluA1, “HA-GluA1 (from UniProt P19490 19-907) (receptor)” returned a stoichiometry N (subunits in the oligomer) of 4.
For the molecule “GluA1ΔNTD Lurcher mutant (A636T) (domain or fragment)”, the stoichiometry N (subunits in the oligomer) in experiment [3] is 4.
Molecule HA-GluA1ΔNTD (domain or fragment) gave a stoichiometry N (subunits in the oligomer) with HA-GluA1ΔNTD of 4.

B1: stargazin (endogenous, cerebellar granule cells) (natural protein)
chain: MGLFDRGVQMLLTTVGAFAAFSLMTIAVGTDYWLYSRGVCKTKSVSENETSKKNEEVMTHSGLWRTCCLEGNFKGLCKQIDHFPEDADYEADTAEYFLRAVRASSIFPILSVILLFMGGLCIAASEFYKTRHNIILSAGIFFVSAGLSNIIGIIVYISANAGDPSKSDSKKNSYSYGWSFYFGALSFIIAEMVGVLAVHMFIDRHKQLRATARATDYLQASAITRIPSYRYRYQRRSRSSSRSTEPSHSRDASPVGVKGFNTLPSTEISMYTLSRDPLKAATTPTATYNSDRDNSFLQVHNCIQKDSKDSLHANTANRRTTPV
Consider B1, for which the stoichiometry N (stargazin per AMPA receptor tetramer) in experiment [4] was found to be 1.
